How the values were obtained:
Assay in all cases: two-hybrid; BACTH in E. coli BTH101 (cya); full length proteins fused to the C-terminus of T18 (pUT18C) or T25 (pKT25) of CyaA; blue colonies on X-Gal/IPTG plates, 30°C, 24 h, and β-galactosidase activity of liquid cultures in Miller units; biological duplicate
[1] = target: SpoIIIAH (Clostridium difficile)
[2] = target: SpoIIQ (Clostridium difficile)
[3] = target: SpoIIM (Clostridium difficile)
[4] = target: SpoIIP H142R (Clostridium difficile)

Molecule	β-galactosidase activity [1]	β-galactosidase activity [2]	β-galactosidase activity [3]	β-galactosidase activity [4]
SpoIIQ (natural protein)	701 Miller Units	743 MU	–	–
SpoIID (natural protein) MKNPLVVLLGFVTCSVLVPSLITLVSYKNVELTEKPESPVSINKTIKKSDIEDKGNKEEKNTVNYETVNKKAPIINVYNHITGKTEKMDMENYLCGVLAGEMSSEFDIEALKAQSVAARTYVVYKQEHGKSSKHKNAVVCTDYKHCQEYKSYDTLKKLNGEEWIKNKYSKIQEAVRGTKGQIITYNDKAILPLYFSTSSGKTENSEEVFSAKYPYLKSVESPYDKYSPKFASTLKISNTDFVKSLRRAYSTIVIDVNNLSKQVSITKRSDAGTVEKIKLGNKELTGKDIRTVFKLNSANFDIKFGEGYIDFVVKGYGHGVGMSQWGAEGMAEEGYKYYDILSHYYTDTKIKDIY	656 MU	761 MU	699 MU	229 MU

Reference: paper PMC6221140
